Measured values reported in article PMC10786891, “Massively parallel profiling of RNA-targeting CRISPR-Cas13d”.
Numbering of substitutions follows the chain as printed. In names and notes the source's numbering stands.

T1: EsCas13d, nuclease-dead (Eubacterium siraeum, UniProt B0MS50, R295A;H300A;R849A;H854A)
T1 sequence: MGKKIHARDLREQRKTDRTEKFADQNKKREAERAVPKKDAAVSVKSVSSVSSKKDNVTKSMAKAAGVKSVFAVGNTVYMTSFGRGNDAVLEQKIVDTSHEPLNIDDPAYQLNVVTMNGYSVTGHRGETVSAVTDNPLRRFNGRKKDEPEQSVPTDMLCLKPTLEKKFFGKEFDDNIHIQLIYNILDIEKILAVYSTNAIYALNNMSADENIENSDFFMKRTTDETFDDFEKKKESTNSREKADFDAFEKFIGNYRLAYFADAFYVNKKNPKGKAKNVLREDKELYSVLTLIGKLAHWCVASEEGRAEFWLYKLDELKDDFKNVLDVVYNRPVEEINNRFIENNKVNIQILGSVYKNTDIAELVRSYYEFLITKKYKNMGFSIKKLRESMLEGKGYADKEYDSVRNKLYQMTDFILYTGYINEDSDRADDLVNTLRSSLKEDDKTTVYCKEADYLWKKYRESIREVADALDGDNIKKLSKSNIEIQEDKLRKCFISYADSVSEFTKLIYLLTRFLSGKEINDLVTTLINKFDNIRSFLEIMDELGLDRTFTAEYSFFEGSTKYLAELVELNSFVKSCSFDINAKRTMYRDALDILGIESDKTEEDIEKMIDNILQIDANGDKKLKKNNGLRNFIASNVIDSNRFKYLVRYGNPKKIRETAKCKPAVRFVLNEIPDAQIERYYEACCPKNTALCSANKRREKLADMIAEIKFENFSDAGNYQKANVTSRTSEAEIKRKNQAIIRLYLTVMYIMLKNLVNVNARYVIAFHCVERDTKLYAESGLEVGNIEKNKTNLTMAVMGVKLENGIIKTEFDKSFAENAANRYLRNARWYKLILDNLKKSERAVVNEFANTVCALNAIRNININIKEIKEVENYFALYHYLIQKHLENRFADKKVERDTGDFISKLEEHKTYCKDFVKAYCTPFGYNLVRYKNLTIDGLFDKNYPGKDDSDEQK

B1: target 1 insG 3' of 18,insA 3' of 11 (mixed)
RNA 1: CACCCGUGCAAAAAUGCAGGGGUCUAAAACUGAGCGGAUAACCUCUCUAUGG
RNA 2: GGGAAUGGAUCCACAUCUACGAAUUCGUACCAUAGGAGAGGUAUAUCCGCUCACCGAGAUCGGAAGAGCACACGU
B2: target 1 C7G,A14G (mixed)
RNA 1: B1 RNA 1
RNA 2: GGGAAUGGAUCCACAUCUACGAAUUCGUACCAUAGAGGGGUUAUGCGCUCACCGAGAUCGGAAGAGCACACGU
B3: target 1 insA 3' of 10,insG 3' of 2 (mixed)
RNA 1: B1 RNA 1
RNA 2: GGGAAUGGAUCCACAUCUACGAAUUCGUACCAUAGAGAGGUUAAUCCGCUCGACCGAGAUCGGAAGAGCACACGU
B4: target 1 insG 3' of 19,insA 3' of 10 (mixed)
RNA 1: B1 RNA 1
RNA 2: B1 RNA 2 with A34G, G35A, A43U, U44A
B5: target 1 U11G,C21A (mixed)
RNA 1: B1 RNA 1
RNA 2: B2 RNA 2 with C31A, G38A, U41G, G45C
B6: target 1 C4U,A9U (mixed)
RNA 1: B1 RNA 1
RNA 2: B2 RNA 2 with G38A, A43U, G45C, C48U
B7: target 1 A9U,G12U (mixed)
RNA 1: B1 RNA 1
RNA 2: B2 RNA 2 with G38A, G40U, A43U, G45C
B8: target 1 C7G,A20U (mixed)
RNA 1: B1 RNA 1
RNA 2: B2 RNA 2 with A32U, G38A
B9: target 1 del13,del17 (mixed)
RNA 1: B1 RNA 1
RNA 2: GGGAAUGGAUCCACAUCUACGAAUUCGUACCAUAAGAGUUAUCCGCUCACCGAGAUCGGAAGAGCACACGU
B10: target 1 insU 3' of 7,insC 3' of 1 (mixed)
RNA 1: B1 RNA 1
RNA 2: B3 RNA 2 with A44U, U45C, C46U, G52A, A53C
B11: target 1 U11A,C21U (mixed)
RNA 1: B1 RNA 1
RNA 2: B2 RNA 2 with C31U, G38A, U41A, G45C
B12: target 1 A20U,C21U (mixed)
RNA 1: B1 RNA 1
RNA 2: B2 RNA 2 with C31U, A32U, G38A, G45C
B13: target 1 U3C,G5U (mixed)
RNA 1: B1 RNA 1
RNA 2: B2 RNA 2 with G38A, G45C, G47U, U49C
B14: target 1 insU 3' of 18,insG 3' of 14 (mixed)
RNA 1: B1 RNA 1
RNA 2: B1 RNA 2 with G35U, U42G, A43U
B15: target 1 A1U,G15U (mixed)
RNA 1: B1 RNA 1
RNA 2: B2 RNA 2 with G37U, G38A, G45C, A51U
B16: target 1 insU 3' of 18,insC 3' of 8 (mixed)
RNA 1: B1 RNA 1
RNA 2: B1 RNA 2 with G35U, A43U, U44A, A45U, U46C
B17: target 1 insC 3' of 19,insG 3' of 8 (mixed)
RNA 1: B1 RNA 1
RNA 2: B1 RNA 2 with A34C, G35A, A43U, U44A, A45U, U46G
B18: target 1 U19A,A20U (mixed)
RNA 1: B1 RNA 1
RNA 2: B2 RNA 2 with A32U, U33A, G38A, G45C
B19: target 1 U8C,G12U (mixed)
RNA 1: B1 RNA 1
RNA 2: B2 RNA 2 with G38A, G40U, U44C, G45C
B20: target 1 insU 3' of 21,insC 3' of 20 (mixed)
RNA 1: B1 RNA 1
RNA 2: GGGAAUGGAUCCACAUCUACGAAUUCGUACCUACUAGAGAGGUUAUCCGCUCACCGAGAUCGGAAGAGCACACGU
B21: target 1 insG 3' of 10,insU 3' of 6 (mixed)
RNA 1: B1 RNA 1
RNA 2: B3 RNA 2 with A43G, G48U, C49G, U50C, C51U, G52C
B22: target 1 insG 3' of 7,insG 3' of 7 (mixed)
RNA 1: B1 RNA 1
RNA 2: B1 RNA 2 with G36A, A37G, G38A, A39G, G41U, A45C, U46G, C47G
B23: target 1 C7G,U10C (mixed)
RNA 1: B1 RNA 1
RNA 2: B2 RNA 2 with G38A, U42C
B24: target 1 complement block 5-13 (mixed)
RNA 1: B1 RNA 1
RNA 2: B2 RNA 2 with G38A, G39C, G40C, U41A, U42A, A43U, U44A, C46G, G47C
B25: target 1 C7A,U11C (mixed)
RNA 1: B1 RNA 1
RNA 2: B2 RNA 2 with G38A, U41C, G45A
B26: target 1 insU 3' of 7,insG 3' of 4 (mixed)
RNA 1: B1 RNA 1
RNA 2: B3 RNA 2 with A44U, U45C, C46U, U50G, C51U, G52C
B27: target 1 del9,del14 (mixed)
RNA 1: B1 RNA 1
RNA 2: B9 RNA 2 with A35G, G36A, A37G, U39G, A41U
B28: target 1 insA 3' of 21,insG 3' of 2 (mixed)
RNA 1: B1 RNA 1
RNA 2: B3 RNA 2 with U33A, A34U, G35A, A36G, G37A, A38G, G39A, U41G, A43U

Target: T1, EsCas13d, nuclease-dead
Experiment: crRNA (strand 1, pre-loaded); Mg2+; 40 mM Tris-HCl pH 7.5, 150 mM NaCl, 6 mM MgCl2, 1 mM DTT, 0.1% Tween-20, 0.2 mg/ml BSA; 25 C; 10 min per concentration, then washed
Conditions: tags: His6-TwinStrep-SUMO cleaved; N-terminal SNAP kept (SNAP-Surface 488); label: 3' end held by stalled T7 RNA polymerase

Binder | Kd [nM]
B1 | 89 ± 11
B2 | 17.7 ± 1.2
B3 | 12.4 ± 0.7
B4 | 59 ± 5
B5 | 64 ± 12
B6 | 50 ± 16
B7 | 10.9 ± 1.1
B8 | 47 ± 6
B9 | 55 ± 20
B10 | 13.9 ± 0.6
B11 | 8.3 ± 0.5
B12 | 19.5 ± 1.2
B13 | 42 ± 9
B14 | 46 ± 3
B15 | 25.9 ± 3
B16 | 53 ± 4
B17 | 45 ± 7
B18 | 47 ± 4
B19 | 10.7 ± 0.6
B20 | 13.5 ± 1
B21 | 36.8 ± 3.1
B22 | 9.8 ± 0.5
B23 | 24.6 ± 2.2
B24 | ~80
B25 | 8.4 ± 0.4
B26 | 7.41 ± 0.26
B27 | 28 ± 1.8
B28 | 16 ± 0.9
